Measured values from article PMC10759339, “Expression of NELL2/NICOL-ROS1 lumicrine signaling-related molecules in the human male reproductive tract” (Reproductive Biology and Endocrinology : RB&E, 2024).

T1: C-terminally 6×His-tagged recombinant human NELL2 protein (human, UniProt Q99435 22-816)
T1 construct: Neural EGF-like like 2 (NELL2), human; also called Neural EGF-like like 2
T1 sequence (looked up): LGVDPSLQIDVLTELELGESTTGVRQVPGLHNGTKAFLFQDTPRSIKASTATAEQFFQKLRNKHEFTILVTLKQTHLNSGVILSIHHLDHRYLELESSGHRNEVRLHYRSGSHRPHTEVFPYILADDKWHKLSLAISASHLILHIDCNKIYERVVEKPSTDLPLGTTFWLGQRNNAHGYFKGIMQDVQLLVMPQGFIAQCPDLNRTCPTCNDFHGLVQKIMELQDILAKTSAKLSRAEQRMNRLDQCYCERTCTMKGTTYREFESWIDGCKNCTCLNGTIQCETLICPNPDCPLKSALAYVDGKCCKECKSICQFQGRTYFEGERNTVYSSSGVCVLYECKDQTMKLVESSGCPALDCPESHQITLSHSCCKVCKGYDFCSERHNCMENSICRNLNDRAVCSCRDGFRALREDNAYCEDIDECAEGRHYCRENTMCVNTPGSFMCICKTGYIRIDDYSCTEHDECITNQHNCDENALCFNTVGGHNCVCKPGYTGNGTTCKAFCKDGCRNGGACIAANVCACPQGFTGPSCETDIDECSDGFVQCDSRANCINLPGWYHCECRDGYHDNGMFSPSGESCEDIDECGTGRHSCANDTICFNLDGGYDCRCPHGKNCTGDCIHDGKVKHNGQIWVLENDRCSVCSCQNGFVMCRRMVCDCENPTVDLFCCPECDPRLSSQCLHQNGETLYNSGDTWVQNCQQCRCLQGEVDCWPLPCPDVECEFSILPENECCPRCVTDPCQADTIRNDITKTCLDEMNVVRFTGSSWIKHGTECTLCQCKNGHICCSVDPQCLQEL


Assays:
NICOL (Mus musculus) = NICOL (Mus musculus) (UniProt Q3UR78); details: cited from earlier work
[1] = molecular target: T1, C-terminally 6×His-tagged recombinant …; test: SPR; purified human NELL2 immobilised on a series S sensor chip CM5 as ligand; purified human NICOL in PBS as analyte at increasing concentration; Biacore T200; details: both partners purified

NICOL (Mus musculus), sequence (Q3UR78 29-90): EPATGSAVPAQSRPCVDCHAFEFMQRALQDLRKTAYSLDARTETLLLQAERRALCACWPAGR
NELL2, sequence (Q61220 25-819): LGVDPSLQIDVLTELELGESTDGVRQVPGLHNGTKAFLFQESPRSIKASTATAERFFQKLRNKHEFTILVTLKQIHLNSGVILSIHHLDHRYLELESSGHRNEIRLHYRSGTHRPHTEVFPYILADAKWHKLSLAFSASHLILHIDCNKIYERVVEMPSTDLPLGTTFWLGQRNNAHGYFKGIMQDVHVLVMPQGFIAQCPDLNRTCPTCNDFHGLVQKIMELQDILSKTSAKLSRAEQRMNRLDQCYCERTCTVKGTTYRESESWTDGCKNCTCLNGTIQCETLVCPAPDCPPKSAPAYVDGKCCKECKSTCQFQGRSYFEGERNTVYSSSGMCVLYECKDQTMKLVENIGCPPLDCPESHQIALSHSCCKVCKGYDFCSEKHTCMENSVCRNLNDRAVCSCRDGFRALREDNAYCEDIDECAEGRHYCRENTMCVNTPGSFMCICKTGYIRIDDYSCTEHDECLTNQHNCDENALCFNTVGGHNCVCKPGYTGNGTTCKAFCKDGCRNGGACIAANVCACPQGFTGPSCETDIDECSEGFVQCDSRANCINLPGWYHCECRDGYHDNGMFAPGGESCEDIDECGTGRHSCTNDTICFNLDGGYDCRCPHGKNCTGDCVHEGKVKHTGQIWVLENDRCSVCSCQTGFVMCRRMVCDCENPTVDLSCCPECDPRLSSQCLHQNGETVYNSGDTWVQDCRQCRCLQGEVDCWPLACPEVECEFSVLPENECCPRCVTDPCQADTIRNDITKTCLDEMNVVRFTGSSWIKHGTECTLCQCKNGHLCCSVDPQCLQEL

Kd [1] | koff [1] | kon [1] | Molecule | Kd (NICOL (Mus musculus))
– | – | – | NELL2 (from UniProt Q61220) | 87 nM
110 nM | 0.00098 s⁻¹ | 9100 M⁻¹ s⁻¹ | C-terminally 6×His-tagged human NICOL protein (ligand, UniProt Q5BLP8 35-95, looked up, also called C4orf48) EPAGSAVPAQSRPCVDCHAFEFMQRALQDLRKTACSLDARTETLLLQAERRALCACWPAGH | –
